Data taken from PMC11369598.

B1: KLHL6 wild type, C-terminal Strep-HA tag (KLHL6-strHA) [human] / KLHL7 [human (endogenous in SuDHL5)] (parent)
chain 1: MLMAGQRGAWTMGDVVEKSLEGPLAPSTDEPSQKTGDLVEILNGEKVKFDDAGLSLILQNGLETLRMENALTDVILCVDIQEFSCHRVVLAAASNYFRAMFCNDLKEKYEKRIIIKGVDAETMHTLLDYTYTSKALITKQNVQRVLEAANLFQFLRMVDACASFLTEALNPENCVGILRLADTHSLDSLKKQVQSYIIQNFVQILNSEEFLDLPVDTLHHILKSDDLYVTEEAQVFETVMSWVRHKPSERLCLLPYVLENVRLPLLDPWYFVETVEADPLIRQCPEVFPLLQEARMYHLSGNEIISERTKPRMHEFQSEVFMIIGGCTKDERFVAEVTCLDPLRRSRLEVAKLPLTEHELESENKKWVEFACVTLKNEVYISGGKETQHDVWKYNSSINKWIQIEYLNIGRWRHKMVVLGGKVYVIGGFDGLQRINNVETYDPFHNCWSEAAPLLVHVSSFAATSHKKKLYVIGGGPNGKLATDKTQCYDPSTNKWSLKAAMPVEAKCINAVSFRDRIYVVGGAMRALYAYSPLEDSWCLVTQLSHERASCGIAPCNNRLYITGGRDEKNEVIATVLCWDPEAQKLTEECVLPRGVSHHGSVTIRKSYTHIRRIVPGAVSV
chain 2: MAASGVEKSSKKKTEKKLAAREEAKLLAGFMGVMNNMRKQKTLCDVILMVQERKIPAHRVVLAAASHFFNLMFTTNMLESKSFEVELKDAEPDIIEQLVEFAYTARISVNSNNVQSLLDAANQYQIEPVKKMCVDFLKEQVDASNCLGISVLAECLDCPELKATADDFIHQHFTEVYKTDEFLQLDVKRVTHLLNQDTLTVRAEDQVYDAAVRWLKYDEPNRQPFMVDILAKVRFPLISKNFLSKTVQAEPLIQDNPECLKMVISGMRYHLLSPEDREELVDGTRPRRKKHDYRIALFGGSQPQSCRYFNPKDYSWTDIRCPFEKRRDAACVFWDNVVYILGGSQLFPIKRMDCYNVVKDSWYSKLGPPTPRDSLAACAAEGKIYTSGGSEVGNSALYLFECYDTRTESWHTKPSMLTQRCSHGMVEANGLIYVCGGSLGNNVSGRVLNSCEVYDPATETWTELCPMIEARKNHGLVFVKDKIFAVGGQNGLGGLDNVEYYDIKLNEWKMVSPMPWKGVTVKCAAVGSIVYVLAGFQGVGRLGHILEYNTETDKWVANSKVRAFPVTSCLICVVDTCGANEETLET
B2: KLHL6 wild type fused to C-terminal BioID2 [human] / LuZP1 [human (endogenous in SuDHL5 and U2932)] (parent)
chain 1: B1 chain 1
chain 2: MAEFTSYKETASSRHLRFKLQSLSRRLDELEEATKNLQKAEDELLDLQDKVIQAEGSNSSMLAEIEVLRQRVLRIEGKDEEIKRAEDLCRLMKEKLEEEENLTRELKSEIERLQKRMAELEKLEEAFSRSKNDCTQLCLSLNEERNLTKKISSELEMLRVKVKELESSEDRLDKTEQSLASELEKLKSLTLSFVSERKYLNEKEKENEKLIKELTQKLEQNKKMNRDYTRNASNLERNDLRIEDGISSTLPSKESRRKGGLDYLKQVENETRNKSENEKNRNQEDNKVKDLNQEIEKLKTQIKHFESLEEELKKMKSKNNDLQDNYLSEQNKNKLLASQLEEIKLQIKKQKELENGEVEGEDAFLSSKGRHERTKFRGHGSEASVSKHTARELSPQHKRERLRNREFALNNENYSLSNRQVSSPSFTNRRAAKASHMGVSTDSGTQETKKTEDRFVPGSSQSEGKKSREQPSVLSRYPPAAQEHSKAWKGTSKPGTESGLKGKVEKTTRTFSDTTHGSVPSDPLGRADKASDTSSETVFGKRGHVLGNGSQVTQAANSGCSKAIGALASSRRSSSEGLSKGKKAANGLEADNSCPNSKAPVLSKYPYSCRSQENILQGFSTSHKEGVNQPAAVVMEDSSPHEALRCRVIKSSGREKPDSDDDLDIASLVTAKLVNTTITPEPEPKPQPNSREKAKTRGAPRTSLFENDKDAGMENESVKSVRASTNTMELPDTNGAGVKSQRPFSPREALRSRAIIKPVIVDKDVKKIMGGSGTETTLEKQKPVSKPGPNKVTSSITIYPSDSSSPRAAPGEALRERHTSTSNIQVGLAELTSVSNHVSSPFELSIHKHDITLQLAEAERMADGPLKDRPETVVSRSSIIIKPSDPVERNSHAPPAETIRWKSHSAPSEVGFSDARHVTVRNAWKSRRDLKSLEDPPTRIGKNVESTNSNAYTQRSSTDFSELEQPRSCLFEQGTRRVGPSSGDAPEPSSRRTQSSLTVSEVLTRRNRVGDTITVAAWNHSASMEEEGEDCTLSVYRQLHNSLDPSELPGKQGLPESGRVRAEERLRPTRPCAEEN
B3: KLHL6 wild type, C-terminal Strep-HA tag (KLHL6-strHA) [human] / adapter protein BANK1 [human (endogenous in SuDHL5 and U2932)] (parent)
chain 1: B1 chain 1
chain 2: MLPAAPGKGLGSPDPAPCGPAPPGNTKDIIMIYEEDAEEWALYLTEVFLHVVKREAILLYRLENFSFRHLELLNLTSYKCKLLILSNSLLRDLTPKKCQFLEKILHSPKSVVTLLCGVKSSDQLYELLNISQSRWEISTEQEPEDYISVIQSIIFKDSEDYFEVNIPTDLRAKHSGEISERKEIEELSEASRNTIPLAVVLPTEIPCENPGEIFIILRDEVIGDTVEVEFTSSNKRIRTRPALWNKKVWCMKALEFPAGSVHVNVYCDGIVKATTKIKYYPTAKAKECLFRMADSGESLCQNSIEELDGVLTSIFKHEIPYYEFQSLQTEICSQNKYTHFKELPTLLHCAAKFGLKNLAIHLLQCSGATWASKMKNMEGSDPAHIAERHGHKELKKIFEDFSIQEIDINNEQENDYEEDIASFSTYIPSTQNPAFHHESRKTYGQSADGAEANEMEGEGKQNGSGMETKHSPLEVGSESSEDQYDDLYVFIPGADPENNSQEPLMSSRPPLPPPRPVANAFQLERPHFTLPGTMVEGQMERSQNWGHPGVRQETGDEPKGEKEKKEEEKEQEEEEDPYTFAEIDDSEYDMILANLSIKKKTGSRSFIINRPPAPTPRPTSIPPKEETTPYIAQVFQQKTARRQSDDDKFCGLPKKQDRARIESPAFSTLRGCLTDGQEELILLQEKVKNGKMSMDEALEKFKHWQMGKSGLEMIQQEKLRQLRDCIIGKRPEEENVYNKLTIVHHPGGKETAHNENKFYNVHFSNKLPARPQVEKEFGFCCKKDH
B4: KLHL6 wild type, C-terminal Strep-HA tag (KLHL6-strHA) [human] / endogenous KLHL6 [human (endogenous in SuDHL5 and SuDHL4)] (parent)
chain 1: B1 chain 1
chain 2: B1 chain 1
B5: KLHL6 wild type, C-terminal Strep-HA tag (KLHL6-strHA) [human] / KLHL26 [human (endogenous in SuDHL5)] (parent)
chain 1: B1 chain 1
chain 2: MAESGGSSGGAGGGGAFGAGPGPERPNSTADKNGALKCTFSAPSHSTSLLQGLATLRAQGQLLDVVLTINREAFPAHKVVLAACSDYFRAMFTGGMREASQDVIELKGVSARGLRHIIDFAYSAEVTLDLDCVQDVLGAAVFLQMLPVVELCEEFLKAAMSVETCLNIGQMATTFSLASLRESVDAFTFRHFLQIAEEEDFLRLPLERLVFFLQSNRLQSCAEIDLFRAAVRWLQHDPARRPRASHVLCHIRFPLMQSSELVDSVQTLDIMVEDVLCRQYLLEAFNYQVLPFRQHEMQSPRTAVRSDVPSLVTFGGTPYTDSDRSVSSKVYQLPEPGARHFRELTEMEVGCSHTCVAVLDNFVYVAGGQHLQYRSGEGAVDACYRYDPHLNRWLRLQAMQESRIQFQLNVLCGMVYATGGRNRAGSLASVERYCPRRNEWGYACSLKRRTWGHAGAASGGRLYISGGYGISVEDKKALHCYDPVADQWEFKAPMSEPRVLHAMVGAGGRIYALGGRMDHVDRCFDVLAVEYYVPETDQWTSVSPMRAGQSEAGCCLLERKIYIVGGYNWRLNNVTGIVQVYNTDTDEWERDLHFPESFAGIACAPVLLPRAGTRR

Variants of: B1
Assay: AP-MS (Strep affinity purification, spectral counts)
Details: with KLHL7 [human (endogenous in SuDHL5)]; SuDHL5 cells; read off a plot

| response (spectral counts) | Variant |
| --- | --- |
| 0 | chain 1 L65P |
| 0 | chain 1 L90F |
| 20 | chain 1 E568K |

Variants of: B1
Assay: AP-MS (Strep affinity purification, mass spectrometry; DESeq2 model)
Details: with KLHL7 [human (endogenous in SuDHL5)]; SuDHL5 cells; WT eight replicates, L65P four replicates; read off a plot

| screen value [log2] | Variant |
| --- | --- |
| 4.9 | chain 1 L65P |

Same assay, conditions: with KLHL7 [human (endogenous in SuDHL5)]; SuDHL5 cells; WT eight replicates, L90F eight replicates; read off a plot

| screen value [log2] | Variant |
| --- | --- |
| 4.9 | chain 1 L90F |

Variants of: B2
Assay: BioID2 proximity labelling, mass spectrometry (spectral counts)
Details: with LuZP1 [human (endogenous in SuDHL5 and U2932)]; SuDHL5 cells; read off a plot

| response (spectral counts) | Variant |
| --- | --- |
| 1.5 | chain 1 E547K |
| 1.5 | chain 1 E568K |
| 13 | chain 1 L65P |

Variants of: B2
Assay: BioID2 proximity labelling, mass spectrometry
Details: with LuZP1 [human (endogenous in SuDHL5 and U2932)]; SuDHL5 cells; read off a plot

| screen value [log2] | Variant |
| --- | --- |
| 2.4 | chain 1 E568K |

Variants of: B3
Assay: AP-MS (Strep affinity purification, spectral counts)
Details: with adapter protein BANK1 [human (endogenous in SuDHL5 and U2932)]; SuDHL5 cells; read off a plot

| response (spectral counts) | Variant |
| --- | --- |
| 2 | chain 1 E568K |
| 7.5 | chain 1 L90F |
| 0.5 | chain 1 L65P |

Variants of: B4
Assay: AP-MS (spectral counts of the WT, leucine-65 peptide in the L65P bait pull-down)
Details: with endogenous KLHL6 [human (endogenous in SuDHL5 and SuDHL4)]; SuDHL5 cells; read off a plot

| response (spectral counts) | Variant |
| --- | --- |
| 5 | chain 1 L65P |

Variants of: B4
Assay: AP-MS (spectral counts of the WT, leucine-90 peptide in the L90F bait pull-down)
Details: with endogenous KLHL6 [human (endogenous in SuDHL5 and SuDHL4)]; SuDHL5 cells; read off a plot

| response (spectral counts) | Variant |
| --- | --- |
| 1 | chain 1 L90F |

Variants of: B5
Assay: AP-MS (Strep affinity purification, spectral counts)
Details: with KLHL26 [human (endogenous in SuDHL5)]; SuDHL5 cells; read off a plot

| response (spectral counts) | Variant |
| --- | --- |
| 0.5 | chain 1 L90F |
| 0 | chain 1 L65P |
| 15 | chain 1 E568K |

Variants of: B5
Assay: AP-MS (Strep affinity purification, mass spectrometry; DESeq2 model)
Details: with KLHL26 [human (endogenous in SuDHL5)]; SuDHL5 cells; WT eight replicates, L90F eight replicates; read off a plot

| screen value [log2] | Variant |
| --- | --- |
| 2.7 | chain 1 L90F |

Same assay, conditions: with KLHL26 [human (endogenous in SuDHL5)]; SuDHL5 cells; WT eight replicates, L65P four replicates; read off a plot

| screen value [log2] | Variant |
| --- | --- |
| 4.4 | chain 1 L65P |
